# According to the DeepSol protein solubility set:
# Assay: soluble on expression in E. coli; label from the status in PepcDB or PDB records
row,Sequence,soluble on expression in E. coli
1,MGSDKIHHHHHHMNADTPLQLLGGLTAAEFLRDYWQRKPLLVRQAIPDFESPLSADELAGLSLEESVESRIVLEHGKTPWEMRRGPFQEEDYQHLPEQDWTLLVQAVDQFVPEVAQLLEQFRFLPSWRIDDVMISYAAPGGGVGPHFDNYDVFLLQGHGRRRWKVGQMCSSDSPLREHADLRILADFEQSDEWVLEPGDMLYLPPRLAHYGIAEDECMTYSIGFRAPSAAEVLTHFTDFLGQFLSDEERYTDAGLQPVGDDPHQIQRDALERLQGLIQEHMSDERLLLTWFGQFMTEPRYPELVAGEEIPEEELFGALEDGALLVRNPSARLAWSEIDIGLVLFASGQSVLLPGQLKELLKLVCSADALHLENLGQWLADDDARKLLAELVKQGSLEFADE,not soluble
2,MGSDKIHHHHHHMNAQEERSRDWVSIRRPFAKAGLETMTARYIQQSFKPHAHDEYVIGIIEGGVHSVWCRGIHHNMPSGTVVTMHPGDVHYGNAAIAEGWKQRMIYISENEIGKFISDIAGGDKFLLPDFKQTFHDRPDLAHSFAQFHEVLHSSPLALARDVALDSIMRVTIGALSPDFVKAKDAKQPSGRIADAVEFLHNRIEDDVTLDELCDVAGLRRRQTIEAFKRCTGLPPHAYHVIQKVKAVKTMLRDGFSATEAAARAGFADQSHMTRHFVGVVGMTPGAYALDCQKKY,not soluble
3,MGSDKIHHHHHHMNARVNLNGLGTLHPMTSTRIATGTSGLDTILRGGLPSNRLYLLEGQPGSGKTTLALQFLLEGAAKGESCLYITLSETLDELQEVAQSHGWSLDALHIFELASAEAFLGDGRQQSILHPWELELDGTVKLIQAEVDRVKPQRVVFDSLSELRLLAQDSLRYRRQVLALKQFFAPRNITVLLVDDLTGTSEGRDSHLHSLCHGVVSLERLTLDFGAARRRMQVQKLRGVDFIAGYHDLSILRGGLRIYPRLIASDHHVTFIGDAVSSGVQEVDDLLHGGPLRGTSTLLTGPAGSGKTNLALQYVAAACARGEHCCIFEFDERTGTLLARAESLGLDLRRHLESGLLELRQMDPAELSPGEFAWQVRASVEQRNCRLLVIDSLNGYLSSMPQEKQLMLQMHELLSYLNQSGVTTFLINPQHGLVGTMSTGNLNISYMADTVILFRFFEAQGRIRKALSVIKNRSGAHEDAIRELRIGNSGIRLSAPLNDFHGVLTGTPHFIGDEAPLLGNDLARR,not soluble
4,MGSDKIHHHHHHMNAVQVLNFQQNSVRTVADNKGELWFLANDVCEILGYTNPRRTVDLHCKSRGVTKRYTPTTSGEQEMTYINEPNLYRLIIKSRKPAAEAFEEWVMETVLPAIRKTGGCQVGPKTTADDRTGLRQAVAALVGRKGIDYSSAYSMIHQRFNVESIEDLPAGKLPEAVAYVHALTLHTGLTGEVLDAPPKAEPKLPIDGNSLADIAAMVYYGTWMIESGKDISAPLKQLGCRQAVTMWTVWHETRPILKRSAAALEVLRGYADKDASDRIAACLEGIYGKATVR,not soluble
5,MGSDKIHHHHHHMNDSATQLTSTGSLTLRHLEAVTMDKAPTFTVKRIAFDEHYLPAENTRITTNFANLARGANRQQNLRNTLTMINNRFNALAHWDNPEHDRYRVELDIISVEMNLESAQYGNALPLIEILKTYIVDRKNNTRLEGMVGNNFSSYVRDYDFSVLLLEHNKHRSTFSTPDHFGELHGNLFKCFVNSQTYQEHFSKPPVICLSVSSSRTYLRTENQHPVLGVEYQQDEYSLTDEYFKKMGLTVRYFMPPNSVAPLAFYFAGDLLADYTDLELISTISTMDTFQKIYRPEIYNANSPAGKAYQPSLKNQDYSLTRIVYDREERSRLAIEQGKFAEEQFVKPYQATLAQWSAQYAR,not soluble
6,MGSDKIHHHHHHMNELQAILEGFESSQESGEITFLATVVKTQGSTYRRPGAKMFMTNTGRTIGTISAGCLENDVFEYTQQRMSDGKPILVTYDRTASEDILWGFGLGCNGVVQVLIERLERKSIPNAIAFTQECFHKKHLGIIATVFAFEGEVDVELGSRLLLYPNGKIVTDIKDQYLIQSLSADTQAAFVNQKPSVNNYQLPFGSAEVFIEVIQPPTPLVIFGAGYGAVPIAKFAQALGWDVTVVDCRANDTTRARFPLACDVILSNRYIIHKQIFIDVQTIAVVMTHNYLDDLEILKMMLPSPARYIGVLGTKYRTERLLEDLSIKGIVPTSEQLNRLYSPVGIDIGAETPEEIAIAIIAEIQAVLKNRNSNFLKNRNQPIHKSYQDNFNL,not soluble
7,MGSDKIHHHHHHMNETNFDWDDLRLFLAVAREGGLAAAAASTGKSAPTLGRRMLNLERRLGSDLFQRMARGYALTEDGQHLLAKAARLESLVLPITAIDPEQAIPVVKVSAGSWVTHLLCANVSEIIGSDRIRLRFIASDDVADIGRREALIGIRNHRPEGSGLAGRRITRVRFAVYARNRKVNTWARVIATTPSAKWVREEARTADAIEVTSPRNALDLALAGTARVVLPTFIGSQFDTLKQVSPLIGDLEHEQWLVTHHEDRFVPQVRKVIDRIYLILKQAKTSS,not soluble
8,MGSDKIHHHHHHMNFKDCIDSYPFILMEGALGERLKREFDLDISGTVAMADLVYQQKGRLALETLWNEYIDIAYRYQLPFLATTPTRRANKERIYMAGYNESIIADNVDFLRSIKEAANVDMYIGGLMGCKGDAYTGEEALNLEEAIDFHSWQAGLFKSAKVDFLYAGIMPVLTEAIGMAVAMSDTDIPYIISFTIQRDGKLIDGHTIDDAIHCIDNHVSNKPVCYMTNCVHPDIVYEALSHKFNQTQTVKSRFWGIQANTSQLSYKELDGANHLHTSSAADLSEAILKLKSDCHLKIFGGCCGTDSSHMEKIAKISEVT,not soluble
9,MGSDKIHHHHHHMNGQLLRQIANYQILYSACCKDLGLLRGKIGISLFFFHYAHFCGDSLYSDYANELIGDVYDDIRIDTPWGIRNGLLGIGWGLEYFMQKGFVECGSNDILTELDNKIMERDLRRVKDYSFDTGIEGLAWYVLIRLLSSERYLQKPFDKMYLDDLRGVCENVPNKVCHPGISLLLDYLVGKQIDDWYLVVLGKITSQRTGGEKKEALLWVEGLKYLLR,not soluble
10,MGSDKIHHHHHHMNIEGNIAIICITENGKKLALKINSLVNNCVIYQVKNKKSNLVVEETCVHTVQKKLSDFVGEIFSKFDYIVFIMATGIVVRSIAPYIISKFSDPAILVMDEKGKNVISLLSGHIGGANSLTQYISSLIDANPVITTATDINQKASLDMIAKKLNAHIDNFRESVKEVNSMLVNNKCVGLYVDEGYQVDTRGFKLIESKDELRDSFSNTYIEKLVVVSNKINCIEDIENLNLDNKFEHCYSTQKIIKVIPRDIVIGIGCRRNTDSELMYNSLEEFLNKQNIDIRAINTVGSIELKKDEKAIIELSKILKVPFKTFSVDEISKVDNLFDKSDFVKKNVGVYSVAEPVAYLLSKGNLLVEKHKYKGITFSVGRIKI,not soluble
11,MGSDKIHHHHHHMNIHVKECGDLEAPLLVFLHGGGVSGWMWSNQVDYFHHYHCIVPDLPHHGLSGRETSFTILNSAEALIRLIEKKAQGRDVIVIGFSLGAQILLQMISINPRLITKAIVNSALVRPIPIPEKLLELSVKSTFPLIKSRWFSRLQAKTLYIDDDLFETYYRESCQMTQDSLTQILKENVSFRLPENVHEISTRILTTVGAKEKRIMKTSATMITHAHPNSTGIIIPSVGHGIPLAKPDQFNQLVDQWLKEERLPHDVGLIEK,not soluble
12,MGSDKIHHHHHHMNILMLMLSDNPDTGGMEKHARELSSELARLGHTVTLAAASQHLSDLEPAVKTRALDTGGSRNSPFLLLTVLRLIRANGFDVIHAQGTKAAFVLQRLTPFTRSLMRVATIHGFKSRYPKAAAFHQLIAVSQALATDIAQPGVTVIYNGVSVIPQAPALLPKETERPVWLAVGRLVSVKGFDFLIRTFQYCPGTLLIAGDGPERQRLADLISSTHQSETVKLLGFRSDVPALMAAADGVVISSEREGFSYVCAEALLLGKPVISTDVPIANEILPEKHIFRGEDPKRFAAYLSQDTSTLVAEQAEAQAFAADQLSLSSMASQTLNVYQRAIANLVSIH,not soluble
13,MGSDKIHHHHHHMNINFENHGGNIEKEARQLGLSTENIIDASASIVPFKLPKKLNNYLINSIKNRSIRSYPDSSYFEVRNAISKWHNIEPSMILPGNGASELFTWAARDASLNGISSLPSPGFGDYQRALKCWNATYVHNPLPLSWTNNNPQSFPIEPKANVLWITNPHNPTGQLWSRSSIENLLANYKLVICDEAFISLVPGGESQSIIDLTNIYKNLIVIRSLTKFLGIAGLRVGYAVTNSDRLLKWKEIRDPWPVNTLAINATKMIMKDSKMHKKRLNKIHRWVEKEGKWLYQSLSSFSTIKPLPSTTNFQLIKSESSILNLLENLKKRGILLRDCRSFINLDEKWFRISLLKREQNIQIINTLKDYIN,not soluble
